Laboratory results published in PMC7851853.

Columns and labels:
[1] = target: actin filaments grown from rabbit skeletal muscle actin (unlabeled ADP-F-actin) (rabbit) (UniProt P68135); assay: TIRF microscopy with microfluidics
[2] = target: actin filaments grown from rabbit skeletal muscle actin (unlabeled ADP-F-actin) (rabbit) (UniProt P68135); assay: single-molecule TIRF microscopy

Substance: mNeonGreen–Tpm1.8 (tropomyosin isoform Tpm1.8 fused at its N-terminus to an alanine–serine extension and to mNeonGreen) (natural protein)
- BB, rate constant of binding to the domain edge at the barbed end (length) [1]: 1.19 m⋅M^-1⋅s^-1
- BBP, combined binding rate constant at both domain edges (length) [1]: 1.83 m⋅M^-1⋅s^-1
- BBP, combined binding rate constant at both domain edges (molecules) [1]: 5.6e+07 M^-1⋅s^-1
- BP, rate constant of binding to the domain edge at the pointed end (length) [1]: 0.64 m⋅M^-1⋅s^-1
- RB, rate of release from the domain edge at the barbed end (length) [1]: 1.98e-09 m⋅s^-1
- RB, rate of release from the domain edge at the barbed end (molecules) [1]: 0.061 s⁻¹
- RBP, combined release rate at both domain edges (length) [1]: 3.05e-09 m⋅s^-1
- RBP, combined release rate at both domain edges (molecules) [1]: 0.094 s⁻¹
- RP, rate of release from the domain edge at the pointed end (length) [1]: 1.07e-09 m⋅s^-1
- RP, rate of release from the domain edge at the pointed end (molecules) [1]: 0.033 s⁻¹
- critical concentration for elongation (affinity at the domain edge) [1]: 1.65 nM
- half-life of a molecule bound at the domain edge at the barbed end [1]: 11 s
- half-life of a molecule bound at the domain edge at the pointed end [1]: 21 s
- Kd of an isolated Tpm1.8 molecule on the actin filament (RI/BI) [2]: 500 µM
- RI, rate of release of an isolated Tpm from the actin filament (length) [2]: > 4.13e-08 m⋅s^-1
- RI, rate of release of an isolated Tpm from the actin filament (molecules) [2]: > 1.25 s⁻¹
- half-life of the complex of an isolated Tpm1.8 molecule and the actin filament [2]: < 0.6 s
